Reference: paper PMC11503520
Where “and” joins values, the source holds several entries; their conditions need not be identical. Identical values can stand only once.

What was measured:
[1] = target: AAV8 viral protein 3 (VP3) (adeno-associated virus serotype 8); assay: CE-SDS of purified capsids; AAV8-H4C1, not separated into EP and FP by DG-UC: ratio of the mixture; VP3 is the sum of VP3 and VP3 clip
[2] = target: AAV8 viral protein 3 (VP3) (adeno-associated virus serotype 8); assay: native MS; orbitrap-based CDMS of full particles (FP); mass of the genome subtracted from the mass distribution of FP, then VP stoichiometry of the capsid of FP estimated as for EP
[3] = target: AAV8 viral protein 3 (VP3) (adeno-associated virus serotype 8); assay: CE-SDS of purified capsids; full particles (FP) separated by DG-UC, denatured with SDS and mercaptoethanol, 60 °C 3 min; VP components detected at 214 nm; VP3 is the sum of VP3 and VP3 clip
[4] = target: AAV8 viral protein 3 (VP3) (adeno-associated virus serotype 8); assay: CE-SDS of purified capsids; empty particles (EP) separated by DG-UC, denatured with SDS and mercaptoethanol, 60 °C 3 min; VP components detected at 214 nm; VP3 is the sum of VP3 and VP3 clip
[5] = target: AAV8 viral protein 3 (VP3) (adeno-associated virus serotype 8); assay: native MS; orbitrap-based CDMS of empty particles (EP) of AAV8-H4C1, AAV8-FIXp and AAV8-FIXp hFIX mini-intron after buffer exchange into 200 mM ammonium acetate; average VP stoichiometry estimated from the mass distribution by assigning integer stoichiometries (0-60 for each VP) and weighted averaging

“AAV8 viral protein 1 (VP1) (natural protein)” was tested. Which VP stoichiometry VP1: VP2: VP3 (copies of VP1 in the capsid) [1] did it give?
The VP stoichiometry VP1: VP2: VP3 (copies of VP1 in the capsid) was 5.1.

And the VP stoichiometry VP1: VP2: VP3 (copies of VP1 in the capsid) [2]?
Its VP stoichiometry VP1: VP2: VP3 (copies of VP1 in the capsid) is 1.7 and 3.4 and 1.8.

And the VP stoichiometry VP1: VP2: VP3 (copies of VP1 in the capsid) [3]?
The VP stoichiometry VP1: VP2: VP3 (copies of VP1 in the capsid) was 4.6 and 4.7.

What about the VP stoichiometry VP1: VP2: VP3 (copies of VP1 in the capsid) [4] of the same substance?
The VP stoichiometry VP1: VP2: VP3 (copies of VP1 in the capsid) was 4.9 and 5.

What about the VP stoichiometry VP1: VP2: VP3 (copies of VP1 in the capsid) [5] of the same substance?
Its VP stoichiometry VP1: VP2: VP3 (copies of VP1 in the capsid) is 2.5 and 2.6.

Which VP stoichiometry VP1: VP2: VP3 (copies of VP2 in the capsid) [1] does the source give for “AAV8 viral protein 2 (VP2) (natural protein)” here?
The VP stoichiometry VP1: VP2: VP3 (copies of VP2 in the capsid) was 7.8.

What about the VP stoichiometry VP1: VP2: VP3 (copies of VP2 in the capsid) [2] of the same substance?
The VP stoichiometry VP1: VP2: VP3 (copies of VP2 in the capsid) was 6.6 and 12.3 and 7.1.

And the VP stoichiometry VP1: VP2: VP3 (copies of VP2 in the capsid) [3]?
The VP stoichiometry VP1: VP2: VP3 (copies of VP2 in the capsid) was 9.3 and 7.5.

What about the VP stoichiometry VP1: VP2: VP3 (copies of VP2 in the capsid) [4] of the same substance?
Its VP stoichiometry VP1: VP2: VP3 (copies of VP2 in the capsid) is 9.7 and 9.6.

And the VP stoichiometry VP1: VP2: VP3 (copies of VP2 in the capsid) [5]?
Its VP stoichiometry VP1: VP2: VP3 (copies of VP2 in the capsid) is 9.4.

Which results are given for “AAV8 viral protein 3 (VP3) (natural protein)”?
VP stoichiometry VP1: VP2: VP3 (copies of VP3 in the capsid) [1]: 47; VP stoichiometry VP1: VP2: VP3 (copies of VP3 in the capsid) [2]: 51.7 and 44.2 and 51; VP stoichiometry VP1: VP2: VP3 (copies of VP3 in the capsid) [3]: 46.1 and 47.8; VP stoichiometry VP1: VP2: VP3 (copies of VP3 in the capsid) [4]: 45.4; VP stoichiometry VP1: VP2: VP3 (copies of VP3 in the capsid) [5]: 48
